The target in the test is T1, human thioredoxin-1 (Trx1) protein (human, UniProt P10599 1-105).
T1 construct: also called naked Trx1; antigen
T1 sequence (looked up): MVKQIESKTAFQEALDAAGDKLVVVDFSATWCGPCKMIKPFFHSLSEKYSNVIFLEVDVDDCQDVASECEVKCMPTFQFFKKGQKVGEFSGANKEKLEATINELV
The experiment in a line: ELISA on coated Trx1 (100 ng/well), antibody diluted 1/5 from 0.1 µM, fit with Prism.

B1: monoclonal antibody B266-1 (antibody, V domains shown)
VH: EVQLQQSGAELVKPGASVKLSCTASGFNIKDTFMHWVKQRPEQGLEWIGRIDPANGNTKYDPKFQGKATITADTSSNTAYLQLSSLTSEDTAVYYCALLQYSAMDYWGQGTSVTVSS
VL: QIVLTQSPAIMSASPGEKVTMTCSASSRISYMYWYQQKPGTSPKRWIYDTSKLASGVPARFSGSGSGTSYSLTISTMEAEDAATYYCHQRSSYPTFGAGTKLELKS
B1 displayed a Kd of 0.011 nM.

The record behind these values is patent US20200200750A1 (E AND S HEALTHCARE, published 2020).
